Source: patent US20140212888A1 (published 2014)

Columns and labels:
Assay in all cases: multimer staining
[1] = target: T1, WT1 (mutant WT1 peptide: second methionine of the wildtype peptide substituted with tyrosine) peptide on … (human)
T1 peptide: CYTWNQMNL

[2] = target: T2, HIV (human immunodeficiency virus) envelope peptide on HLA-A*24:02 (human)
T2 peptide: RYLRDQQLL

[3] = target: T3, WT1 (wildtype WT1 peptide) peptide on HLA-A*24:02 (human)
T3 peptide: CMTWNQMNL

B1: WT1 TCR A12-3/B5-1 (TCR, V domains shown)
Valpha: QKEVEQDPGPLSVPEGAIVSLNCTYSNSAFQYFMWYRQYSRKGPELLMYTYSSGNKEDGRFTAQVDKSSKYISLFIRDSQPSDSATYLCATSNAGGTSYGKLTFGQGTILTVHP
Vbeta: KAGVTQTPRYLIKTRGQQVTLSCSPISGHRSVSWYQQTPGQGLQFLFEYFSETQRNKGNFPGRFSGRQFSNSRSEMNVSTLELGDSALYLCASSYGERERKGETQYFGPGTRLLVL
binding result [1]: recognises | binding result [2]: no recognition | binding result [3]: recognises
